What was measured:
cynomolgus IL-17A [1] = target: T1, cynomolgus IL-17A (cynomolgus, UniProt Q16552 24-155 (human entry), limits assumed); test: cell-based or functional assay
T1 chain: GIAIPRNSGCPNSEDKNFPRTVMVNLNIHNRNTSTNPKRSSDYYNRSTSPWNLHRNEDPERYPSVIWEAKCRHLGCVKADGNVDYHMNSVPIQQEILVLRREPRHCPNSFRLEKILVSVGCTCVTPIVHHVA

[2] = target: T2, human IL-17A (recombinant) (human, UniProt Q16552 24-155); test: cell-based or functional assay
cynomolgus IL-17A [3] = target: T1, cynomolgus IL-17A; test: cell-based or functional assay
[4] = target: T2, human IL-17A (recombinant); test: cell-based or functional assay; remark: listed apart in the source
[5] = target: T2, human IL-17A (recombinant); test: competition ELISA: biotinylated rhIL-17A binding to plate-coated rhIL-17RA-Fc; Experiment 1; 95% CI 0.03759-0.04316
[6] = target: T2, human IL-17A (recombinant); test: cell-based or functional assay; remark: listed apart in the source
[7] = target: T3, recombinant human IL-17A/F heterodimer (human, UniProt Q16552 24-155; Q96PD4 31-163); test: cell-based or functional assay
[8] = target: T2, human IL-17A (recombinant); test: competition ELISA: biotinylated rhIL-17A binding to plate-coated rhIL-17RA-Fc; Experiment 3; 95% CI 0.07179-0.08047
[9] = target: T3, recombinant human IL-17A/F heterodimer; test: cell-based or functional assay; remark: listed apart in the source
[10] = target: T2, human IL-17A (recombinant); test: cell-based or functional assay; remark: listed apart in the source
[11] = target: T2, human IL-17A (recombinant); test: competition ELISA: biotinylated rhIL-17A binding to plate-coated rhIL-17RA-Fc; Experiment 2; 95% CI 0.04003-0.04542
[12] = target: T2, human IL-17A (recombinant); test: competition ELISA: biotinylated rhIL-17A binding to plate-coated rhIL-17RA-Fc; Experiment 2; 95% CI 0.02829-0.03326
[13] = target: T2, human IL-17A (recombinant); test: competition ELISA: biotinylated rhIL-17A binding to plate-coated rhIL-17RA-Fc; Experiment 3; 95% CI 0.06727-0.07636
[14] = target: T2, human IL-17A (recombinant); test: competition ELISA: biotinylated rhIL-17A binding to plate-coated rhIL-17RA-Fc; Experiment 1; 95% CI 0.03924-0.04274

B1: mAb 4782 (parental anti-IL-17A antibody, IgG1, F405L) (antibody)
heavy: not shown
light: QSVLTQPPSVSVAPGQTARISCSGDNLGDKYANWYQQKPGQAPVLVIYDDIDRPSGIPERFSGSNSGNTATLTISGTQAEDEADYYCGSYDFFLGMIVFGGGTKLTVLGQPKAAPSVTLFPPSSEELQANKATLVCLISDFYPGAVTVAWKADSSPVKAGVETTTPSKQSNNKYAASSYLSLTPEQWKSHRSYSCQVTHEGSTVEKTVAPTECS
- IC50 (µg/mL); Inhibition of cyno IL-17A mediated IL-6 production by NHDF; Experiment 2 (cynomolgus IL-17A [1]): 0.0437 µg/mL
- IC50 (µg/mL); Inhibition of cyno IL-17A mediated IL-6 production by NHDF; Experiment 3 (cynomolgus IL-17A [1]): 0.0248 µg/mL
- IC50 (µg/mL); Inhibition of native IL-17A mediated IL-6 production by NHDF; Experiment 1 [2]: 0.0254 µg/mL
- IC50 (µg/mL); Inhibition of native IL-17A mediated IL-6 production by NHDF; Experiment 2 [2]: 0.0336 µg/mL
- IC50 (µg/mL); Inhibition of native IL-17A mediated IL-6 production by NHDF; Experiment 3 [2]: 0.0242 µg/mL
- IC50 (µg/mL); Inhibition of cyno IL-17A mediated GROα production by NHDF; Experiment 1 (cynomolgus IL-17A [3]): 0.0235 µg/mL
- IC50 (µg/mL); Inhibition of cyno IL-17A mediated GROα production by NHDF; Experiment 2 (cynomolgus IL-17A [3]): 0.0466 µg/mL
- IC50 (µg/mL); Inhibition of cyno IL-17A mediated GROα production by NHDF; Experiment 3 (cynomolgus IL-17A [3]): 0.0349 µg/mL
- IC50 (nM); Inhibition of rhTNF-α and IL-17A induced GROα secretion from RA-FLSs from three donors; Donor 1 (ST1320) [4]: 0.25 nM
- IC50 (nM); Inhibition of rhTNF-α and IL-17A induced GROα secretion from RA-FLSs from three donors; Donor 2 (ST1349) [4]: 0.12 nM
- IC50 (nM); Inhibition of rhTNF-α and IL-17A induced GROα secretion from RA-FLSs from three donors; Donor 3 (ST1359) [4]: 0.14 nM
- IC50 [5]: 0.0403 µg/mL
- IC50 (µg/mL); Inhibition of native IL-17A mediated GROα production by NHDF; Experiment 1 [6]: 0.0207 µg/mL
- IC50 (µg/mL); Inhibition of native IL-17A mediated GROα production by NHDF; Experiment 2 [6]: 0.0327 µg/mL
- IC50 (µg/mL); Inhibition of native IL-17A mediated GROα production by NHDF; Experiment 3 [6]: 0.0236 µg/mL
- IC50 (µg/mL); Inhibition of IL-17A/F mediated GROα production by NHDF; Experiment 1 [7]: 0.473 µg/mL
- IC50 (µg/mL); Inhibition of IL-17A/F mediated GROα production by NHDF; Experiment 2 [7]: 0.117 µg/mL
- IC50 (µg/mL); Inhibition of IL-17A/F mediated GROα production by NHDF; Experiment 3 [7]: 0.317 µg/mL
- IC50 [8]: 0.076 µg/mL
- IC50 (µg/mL); Inhibition of IL-17A/F mediated IL-6 production by NHDF; Experiment 1 [9]: 0.714 µg/mL
- IC50 (µg/mL); Inhibition of IL-17A/F mediated IL-6 production by NHDF; Experiment 2 [9]: 0.243 µg/mL
- IC50 (µg/mL); Inhibition of IL-17A/F mediated IL-6 production by NHDF; Experiment 3 [9]: 0.99 µg/mL
- IC50 (nM); Inhibition of rhTNF-α and IL-17 induced IL-6 secretion from RA-FLSs; Donor 1 (ST1320) [10]: 0.34 nM
- IC50 (nM); Inhibition of rhTNF-α and IL-17 induced IL-6 secretion from RA-FLSs; Donor 2 (ST1349) [10]: 0.22 nM
- IC50 (nM); Inhibition of rhTNF-α and IL-17 induced IL-6 secretion from RA-FLSs; Donor 3 (ST1359) [10]: 0.25 nM
- IC50 [11]: 0.0426 µg/mL

B2: mAb 7206 (parental anti-IL-17A antibody, IgG1, YTE) (antibody)
heavy: QVQLLESGGGLVQPGGSLRLSCAASGFTFSSYAMSWVRQAPGKGLEWVSTISLTSGFTYYADSVKGRFTISRDNSKNTLYLQMNSLRAEDTAVYYCARQLTLDVWGQGTLVTVSSASTKGPSVFPLAPSSKSTSGGTAALGCLVKDYFPEPVTVSWNSGALTSGVHTFPAVLQSSGLYSLSSVVTVPSSSLGTQTYICNVNHKPSNTKVDKKVEPKSCDKTHTCPPCPAPELLGGPSVFLFPPKPKDTLYITREPEVTCVVVDVSHEDPEVKFNWYVDGVEVHNAKTKPREEQYNSTYRVVSVLTVLHQDWLNGKEYKCKVSNKALPAPIEKTISKAKGQPREPQVYTLPPSREEMTKNQVSLTCLVKGFYPSDIAVEWESNGQPENNYKTTPPVLDSDGSFLLYSKLTVDKSRWQQGNVFSCSVMHEALHNHYTQKSLSLSPGK
light: B1 light
- IC50 (µg/mL); Inhibition of cyno IL-17A mediated IL-6 production by NHDF; Experiment 3 (cynomolgus IL-17A [1]): 0.0326 µg/mL
- IC50 (µg/mL); Inhibition of native IL-17A mediated IL-6 production by NHDF; Experiment 1 [2]: 0.0214 µg/mL
- IC50 (µg/mL); Inhibition of native IL-17A mediated IL-6 production by NHDF; Experiment 2 [2]: 0.0242 µg/mL
- IC50 (µg/mL); Inhibition of native IL-17A mediated IL-6 production by NHDF; Experiment 3 [2]: 0.0232 µg/mL
- IC50 (µg/mL); Inhibition of cyno IL-17A mediated GROα production by NHDF; Experiment 3 (cynomolgus IL-17A [3]): 0.0271 µg/mL
- IC50 (µg/mL); Inhibition of native IL-17A mediated GROα production by NHDF; Experiment 1 [6]: 0.0198 µg/mL
- IC50 (µg/mL); Inhibition of native IL-17A mediated GROα production by NHDF; Experiment 2 [6]: 0.0265 µg/mL
- IC50 (µg/mL); Inhibition of native IL-17A mediated GROα production by NHDF; Experiment 3 [6]: 0.0215 µg/mL
- IC50 (µg/mL); Inhibition of IL-17A/F mediated GROα production by NHDF; Experiment 1 [7]: 0.725 µg/mL
- IC50 (µg/mL); Inhibition of IL-17A/F mediated GROα production by NHDF; Experiment 2 [7]: 0.393 µg/mL
- IC50 (µg/mL); Inhibition of IL-17A/F mediated GROα production by NHDF; Experiment 3 [7]: 0.403 µg/mL
- IC50 [12]: 0.0307 µg/mL
- IC50 [13]: 0.0717 µg/mL
- IC50 [14]: 0.041 µg/mL
- IC50 (µg/mL); Inhibition of IL-17A/F mediated IL-6 production by NHDF; Experiment 1 [9]: 0.344 µg/mL
- IC50 (µg/mL); Inhibition of IL-17A/F mediated IL-6 production by NHDF; Experiment 2 [9]: 0.269 µg/mL
- IC50 (µg/mL); Inhibition of IL-17A/F mediated IL-6 production by NHDF; Experiment 3 [9]: 0.545 µg/mL

— patent publication US20200010571A1 (Janssen / Centocor, published 2020)
